Test results published in patent US20150344570A1 (published 2015).

T1: FcγRIIa R (human, UniProt P12318 34-217)
T1 construct: extracellular domain; also called FcgRIIa R type; 2aR
T1 sequence (looked up): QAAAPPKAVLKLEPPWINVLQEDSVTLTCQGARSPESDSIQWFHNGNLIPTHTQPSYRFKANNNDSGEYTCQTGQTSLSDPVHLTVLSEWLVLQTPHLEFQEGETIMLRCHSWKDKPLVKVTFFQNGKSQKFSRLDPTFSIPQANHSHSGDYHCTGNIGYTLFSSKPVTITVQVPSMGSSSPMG


Biological target: T1, FcγRIIa R
Test: SPR (Biacore), captured antibody, FcγR as analyte; relative binding activity

Row | Binder | He/Con_2aR
1 | GpH7-A5/GpH7-B3 variant A330_12R/GpL16-k0 (antibody, human IgG1, kappa, also called He Ab A330_12R) heavy 1: not shown heavy 2: not shown light: DIVMTQSPLSLPVTPGEPASISCQASESLVHSNRNTYLHWYLQKPGQSPQLLIYKVSNRFSGVPDRFSGSGSGTDFTLKISRVEAEDVGVYYCSQNTHVPPTFGQGTKVEIERTVAAPSVFIFPPSDEQLKSGTASVVCLLNNFYPREAKVQWKVDNALQSGNSQESVTEQDSKDSTYSLSSTLTLSKADYEKHKVYACEVTHQGLSSPVTKSFNRGEC | 104 % (GpH7-A5/GpH7-B3/GpL16-k0 = 100)
2 | GpH7-A5/GpH7-B3 variant E333_04F/GpL16-k0 (antibody, human IgG1, kappa, also called He Ab E333_04F) heavy 1: not shown heavy 2: not shown light: DIVMTQSPLSLPVTPGEPASISCQASESLVHSNRNTYLHWYLQKPGQSPQLLIYKVSNRFSGVPDRFSGSGSGTDFTLKISRVEAEDVGVYYCSQNTHVPPTFGQGTKVEIERTVAAPSVFIFPPSDEQLKSGTASVVCLLNNFYPREAKVQWKVDNALQSGNSQESVTEQDSKDSTYSLSSTLTLSKADYEKHKVYACEVTHQGLSSPVTKSFNRGEC | 102 % (GpH7-A5/GpH7-B3/GpL16-k0 = 100)
3 | GpH7-A5/GpH7-B3 variant G237_13S/GpL16-k0 (antibody, human IgG1, kappa, also called He Ab G237_13S) heavy 1: not shown heavy 2: not shown light: DIVMTQSPLSLPVTPGEPASISCQASESLVHSNRNTYLHWYLQKPGQSPQLLIYKVSNRFSGVPDRFSGSGSGTDFTLKISRVEAEDVGVYYCSQNTHVPPTFGQGTKVEIERTVAAPSVFIFPPSDEQLKSGTASVVCLLNNFYPREAKVQWKVDNALQSGNSQESVTEQDSKDSTYSLSSTLTLSKADYEKHKVYACEVTHQGLSSPVTKSFNRGEC | 121 % (GpH7-A5/GpH7-B3/GpL16-k0 = 100)
4 | GpH7-A5/GpH7-B3 variant G237_02A/GpL16-k0 (antibody, human IgG1, kappa, also called He Ab G237_02A) heavy 1: not shown heavy 2: not shown light: DIVMTQSPLSLPVTPGEPASISCQASESLVHSNRNTYLHWYLQKPGQSPQLLIYKVSNRFSGVPDRFSGSGSGTDFTLKISRVEAEDVGVYYCSQNTHVPPTFGQGTKVEIERTVAAPSVFIFPPSDEQLKSGTASVVCLLNNFYPREAKVQWKVDNALQSGNSQESVTEQDSKDSTYSLSSTLTLSKADYEKHKVYACEVTHQGLSSPVTKSFNRGEC | 126 % (GpH7-A5/GpH7-B3/GpL16-k0 = 100)
5 | GpH7-A5/GpH7-B3 variant G237_18N/GpL16-k0 (antibody, human IgG1, kappa, also called He Ab G237_18N) heavy 1: not shown heavy 2: not shown light: DIVMTQSPLSLPVTPGEPASISCQASESLVHSNRNTYLHWYLQKPGQSPQLLIYKVSNRFSGVPDRFSGSGSGTDFTLKISRVEAEDVGVYYCSQNTHVPPTFGQGTKVEIERTVAAPSVFIFPPSDEQLKSGTASVVCLLNNFYPREAKVQWKVDNALQSGNSQESVTEQDSKDSTYSLSSTLTLSKADYEKHKVYACEVTHQGLSSPVTKSFNRGEC | 150 % (GpH7-A5/GpH7-B3/GpL16-k0 = 100)
6 | GpH7-A5/GpH7-B3 variant G237_08L/GpL16-k0 (antibody, human IgG1, kappa, also called He Ab G237_08L) heavy 1: not shown heavy 2: not shown light: DIVMTQSPLSLPVTPGEPASISCQASESLVHSNRNTYLHWYLQKPGQSPQLLIYKVSNRFSGVPDRFSGSGSGTDFTLKISRVEAEDVGVYYCSQNTHVPPTFGQGTKVEIERTVAAPSVFIFPPSDEQLKSGTASVVCLLNNFYPREAKVQWKVDNALQSGNSQESVTEQDSKDSTYSLSSTLTLSKADYEKHKVYACEVTHQGLSSPVTKSFNRGEC | 133 % (GpH7-A5/GpH7-B3/GpL16-k0 = 100)
7 | GpH7-A5/GpH7-B3 variant E269_09D/GpL16-k0 (antibody, human IgG1, kappa, also called He Ab E269_09D) heavy 1: not shown heavy 2: not shown light: DIVMTQSPLSLPVTPGEPASISCQASESLVHSNRNTYLHWYLQKPGQSPQLLIYKVSNRFSGVPDRFSGSGSGTDFTLKISRVEAEDVGVYYCSQNTHVPPTFGQGTKVEIERTVAAPSVFIFPPSDEQLKSGTASVVCLLNNFYPREAKVQWKVDNALQSGNSQESVTEQDSKDSTYSLSSTLTLSKADYEKHKVYACEVTHQGLSSPVTKSFNRGEC | 105 % (GpH7-A5/GpH7-B3/GpL16-k0 = 100)
8 | GpH7-A5/GpH7-B3 variant G237_04F/GpL16-k0 (antibody, human IgG1, kappa, also called He Ab G237_04F) heavy 1: not shown heavy 2: not shown light: DIVMTQSPLSLPVTPGEPASISCQASESLVHSNRNTYLHWYLQKPGQSPQLLIYKVSNRFSGVPDRFSGSGSGTDFTLKISRVEAEDVGVYYCSQNTHVPPTFGQGTKVEIERTVAAPSVFIFPPSDEQLKSGTASVVCLLNNFYPREAKVQWKVDNALQSGNSQESVTEQDSKDSTYSLSSTLTLSKADYEKHKVYACEVTHQGLSSPVTKSFNRGEC | 126 % (GpH7-A5/GpH7-B3/GpL16-k0 = 100)
9 | GpH7-A5/GpH7-B3 variant G237_15Y/GpL16-k0 (antibody, human IgG1, kappa, also called He Ab G237_15Y) heavy 1: not shown heavy 2: not shown light: DIVMTQSPLSLPVTPGEPASISCQASESLVHSNRNTYLHWYLQKPGQSPQLLIYKVSNRFSGVPDRFSGSGSGTDFTLKISRVEAEDVGVYYCSQNTHVPPTFGQGTKVEIERTVAAPSVFIFPPSDEQLKSGTASVVCLLNNFYPREAKVQWKVDNALQSGNSQESVTEQDSKDSTYSLSSTLTLSKADYEKHKVYACEVTHQGLSSPVTKSFNRGEC | 129 % (GpH7-A5/GpH7-B3/GpL16-k0 = 100)
10 | GpH7-A5/GpH7-B3 variant E333_05P/GpL16-k0 (antibody, human IgG1, kappa, also called He Ab E333_05P) heavy 1: not shown heavy 2: not shown light: DIVMTQSPLSLPVTPGEPASISCQASESLVHSNRNTYLHWYLQKPGQSPQLLIYKVSNRFSGVPDRFSGSGSGTDFTLKISRVEAEDVGVYYCSQNTHVPPTFGQGTKVEIERTVAAPSVFIFPPSDEQLKSGTASVVCLLNNFYPREAKVQWKVDNALQSGNSQESVTEQDSKDSTYSLSSTLTLSKADYEKHKVYACEVTHQGLSSPVTKSFNRGEC | 105 % (GpH7-A5/GpH7-B3/GpL16-k0 = 100)
11 | GpH7-A5/GpH7-B3 variant E333_07I/GpL16-k0 (antibody, human IgG1, kappa, also called He Ab E333_07I) heavy 1: not shown heavy 2: not shown light: DIVMTQSPLSLPVTPGEPASISCQASESLVHSNRNTYLHWYLQKPGQSPQLLIYKVSNRFSGVPDRFSGSGSGTDFTLKISRVEAEDVGVYYCSQNTHVPPTFGQGTKVEIERTVAAPSVFIFPPSDEQLKSGTASVVCLLNNFYPREAKVQWKVDNALQSGNSQESVTEQDSKDSTYSLSSTLTLSKADYEKHKVYACEVTHQGLSSPVTKSFNRGEC | 104 % (GpH7-A5/GpH7-B3/GpL16-k0 = 100)
